“Also recorded” adds a separate entry of the source. Like-named read-outs stand apart in the source and are kept apart here.
How the values were obtained:
Kuramochi-mCh-NLS cells = experiment: Co-culture of chimeric Tim receptor T cells with Niraparib-treated Kuramochi cells (IncuCyte); type: cell-based, human
Procedure: Kuramochi cells expressing a mCherry-NLS plasmid were incubated for 20 hours with 25, 12.5, or 6.25 μM Niraparib. The next day the Niraparib concentration was reduced to 0.52 μM and co-cultures of primary human CD4+ and CD8+ T cells expressing chimeric Tim receptor construct 13A (TIM4 binding domain-CD28 transmembrane domain—CD28 costimulatory domain-CD3ζ signaling domain) (SEQ ID NO 162) were added to the Kuramochi culture. […] The number of Kuramochi cells expressing mCherry-NLS was monitored via IncuCyte.
Kuramochi cells expressing a mCherry-NLS plasmid were incubated for ˜20 hours with 1.56 μM Niraparib. The next day, media were removed from cells and replaced with fresh media with 0 μM Niraparib, and primary human CD4+ and CD8+ T cells expressing chimeric Tim receptor CTX140 (Tim4 binding domain-CD28 hinge-CD28 transmembrane-CD28 costimulatory domain-DAP12)(SEQ ID NO: 195) or CTX156 (tEGFR control) were added to the Kuramochi culture. The number of Kuramochi cells expressing mCherry-NLS was monitored via IncuCyte.
21500 Kuramochi ovarian cancer cells expressing an mCherry-NLS plasmid were plated on day 0.25, 12.5, or 6.25 μM Niraparib were added to cell culture ˜4 hours later. ˜20 hours after initial Niraparib dose, primary human CD4+ and CD8+ T cells expressing chimeric Tim receptor CTX137 (Tim4 binding domain-CD28 transmembrane-CD28 costimulatory domain-DAP12) (SEQ ID NO: 197) or CTX156 (tEGFR control) and maintenance dose of 0.52 μM Niraparib were added.
T cell transduction and culturing: CD4 and CD8 T cells were isolated from frozen healthy donor PBMCs using Miltenyi CD4+ and CD8+ isolation kits. CD4 and CD8 T cells were then mixed in a 1:1 ratio and incubated overnight in a flat bottom 24 well plate in OpTmizer medium supplemented with cell serum replacement, IL-Glutamine, GlutaMAX, and IL-2, IL-7, and IL-15 cytokines, and TransAct diluted 1:50. […] T cells were counted and supplemented with fresh medium approximately every two days thereafter. […]

[1] = low phosphatidylserine density, cited from earlier work

B1: CTX140: Tim4 binding domain-CD28 hinge-CD28 transmembrane-CD28 costimulatory domain-DAP12, SEQ ID NO: 195 (protein)
chain: MSKEPLILWLMIEFWWLYLTPVTSETVVTEVLGHRVTLPCLYSSWSHNSNSMCWGKDQCPYSGCKEALIRTDGMRVTSRKSAKYRLQGTIPRGDVSLTILNPSESDSGVYCCRIEVPGWFNDVKINVRLNLQRASTTTHRTATTTTRRTTTTSPTTTRQMTTTPAALPTTVVTTPDLTTGTPLQMTTIAVFTTANTCLSLTPSTLPEEATGLLTPEPSKEGPILTAESETVLPSDSWSSVESTSADTVLLTSKESKVWDLPSTSHVSMWKTSDSVSSPQPGASDTAVPEQNKTTKTGQMDGIPMSMKNEMPISQIEVMYPPPYLDNEKSNGTIIHVKGKHLCPSPLFPGPSKPFWVLVVVGGVLACYSLLVTVAFIIFWVRSKRSRLLHSDYMNMTPRRPGPTRKHYQPYAPPRDFAAYRSYFLGRLVPRGRGAAEAATRKQRITETESPYQELQGQRSDVYSDLNTQRPYYK
modifications: Tim4 binding domain-CD28 hinge-CD28 transmembrane-CD28 costimulatory signaling domain-DAP12 signaling domain, amino acids 1-24 are signal peptide(CTX140)
number of Kuramochi cells in culture vs mock transduction control (Kuramochi-mCh-NLS cells; Niraparib 1.56 μM pre-incubation ~20 h, then 0 μM, control CTX156, FIG. 5): reduces Kuramochi cell numbers; also recorded: significantly reduce the number of Kuramochi cells

B2: CTX137: Tim4 binding domain-CD28 transmembrane-CD28 costimulatory domain-DAP12, SEQ ID NO: 197 (protein)
chain: MSKEPLILWLMIEFWWLYLTPVTSETVVTEVLGHRVTLPCLYSSWSHNSNSMCWGKDQCPYSGCKEALIRTDGMRVTSRKSAKYRLQGTIPRGDVSLTILNPSESDSGVYCCRIEVPGWFNDVKINVRLNLQRASTTTHRTATTTTRRTTTTSPTTTRQMTTTPAALPTTVVTTPDLTTGTPLQMTTIAVFTTANTCLSLTPSTLPEEATGLLTPEPSKEGPILTAESETVLPSDSWSSVESTSADTVLLTSKESKVWDLPSTSHVSMWKTSDSVSSPQPGASDTAVPEQNKTTKTGQMDGIPMSMKNEMPISQFWVLVVVGGVLACYSLLVTVAFIIFWVRSKRSRLLHSDYMNMTPRRPGPTRKHYQPYAPPRDFAAYRSYFLGRLVPRGRGAAEAATRKQRITETESPYQELQGQRSDVYSDLNTQRPYYK
modifications: Tim4 binding domain-CD28 transmembrane-CD28 costimulatory signaling domain-DAP12 signaling domain, amino acids 1-24 are signal peptide (CTX137)
Kuramochi cell numbers (Kuramochi-mCh-NLS cells; Niraparib 25 μM pre-incubation + 0.52 μM maintenance, control CTX156, FIG. 6): reduces Kuramochi cell numbers | number of Kuramochi cells in culture vs mock transduction control (Kuramochi-mCh-NLS cells; Niraparib 25, 12.5 or 6.25 μM pre-treatment ~20 h, then 0.52 μM, CD4+/CD8+ T cells, FIG. 4, FIG. 7): reduces Kuramochi cell numbers; also recorded: significantly reduce the number of Kuramochi cells

B3: Tim-4: phosphatidylserine receptor typically expressed on antigen presenting cells (protein, UniProt Q96H15 25-378, looked up)
T-cell immunoglobulin and …: ETVVTEVLGHRVTLPCLYSSWSHNSNSMCWGKDQCPYSGCKEALIRTDGMRVTSRKSAKYRLQGTIPRGDVSLTILNPSESDSGVYCCRIEVPGWFNDVKINVRLNLQRASTTTHRTATTTTRRTTTTSPTTTRQMTTTPAALPTTVVTTPDLTTGTPLQMTTIAVFTTANTCLSLTPSTLPEEATGLLTPEPSKEGPILTAESETVLPSDSWSSVESTSADTVLLTSKESKVWDLPSTSHVSMWKTSDSVSSPQPGASDTAVPEQNKTTKTGQMDGIPMSMKNEMPISQLLMIIAPSLGFVLFALFVAFLLRGKLMETYCSQKHTRLDYIGDSKNVLNDVQHGREDEDGLFTL
binding at Low PtdSer [1]: Minimal | binding at Low PtdSer ([1]; listed as Tim4 binding domain): binds minimally

Reference: patent US20250186491A1, “COMPOSITIONS AND METHODS FOR TREATING CANCER WITH CHIMERIC TIM RECEPTORS IN COMBINATION WITH INHIBITORS OF POLY (ADP-RIBOSE) POLYMERASE” (CERO THERAPEUTICS HOLDINGS, INC., priority 2020, published 2025)
